What was measured:
Experiment in all cases: potentiometry
[1] = molecular target: Tyr189 (UniProt position 189, …); details: 298 K, 0.04 M sodium dodecyl sulfate (no other salt stated), none (HClO4/KOH)
[2] = molecular target: Arg187 (UniProt position 187, …); details: 298 K; 0.04 M sodium dodecyl sulfate (no other salt stated); none (HClO4/KOH); free peptide (0.5 mM) in SDS, no metal
[3] = molecular target: Lys79 (UniProt position 79, …); details: 298 K, 0.1 M NaClO4, none (HClO4/KOH)
[4] = molecular target: Arg76 (UniProt position 76, …); details: 298 K, 0.1 M NaClO4, none (HClO4/KOH)
[5] = molecular target: Cterm310 (UniProt position 310, GQLHCT-----); details: 298 K; 0.1 M NaClO4; none (HClO4/KOH); free peptide (0.5 mM), no metal
[6] = molecular target: Glu303 (UniProt position 303, …); details: 298 K; 0.1 M NaClO4; none (HClO4/KOH); free peptide (0.5 mM), no metal
[7] = free peptide (0.5 mM) in SDS, no metal
[8] = Ni(II) complex, metal:peptide 1:1, 0.5 mM peptide
[9] = Zn(II) complex, metal:peptide 1:1, 0.5 mM peptide
[10] = free peptide (0.5 mM), no metal

B1: Aspf2 (Asp f 2 zincophore) fragment 185-192, Ac-MHRLYHVP-NH2 (Aspergillus fumigatus) (peptide)
chain: MHRLYHVP
pKa [1, 7]: 9.56
pKa [2]: 11.21

B2: Aspf2 (Asp f 2 zincophore) fragment 75-81, Ac-ARHAKAH-NH2 (Aspergillus fumigatus) (peptide)
chain: ARHAKAH
pKa [3, 8]: 9.87
pKa [3, 9]: 9.75
pKa [3, 10]: 9.79
pKa [4, 8]: 11.38
pKa [4, 9]: 11.79
pKa [4, 10]: 11.14

B3: Aspf2 (Asp f 2 zincophore) C-terminal fragment 297-310, Ac-PNCHTHEGGQLHCT (Aspergillus fumigatus) (peptide)
chain: PNCHTHEGGQLHCT
pKa [5]: 3.08
pKa [6]: 4.24

B4: Aspf2 (Asp f 2 zincophore) fragment 185-204, Ac-MHRLYHVPAVGQGWVDHFAD-NH2 (Aspergillus fumigatus) (peptide)
chain: MHRLYHVPAVGQGWVDHFAD
pKa ([1]; Zn(II) complex, metal:peptide 1:1, 0.5 mM peptide, in SDS): 9.56
pKa [1, 7]: 10.12
pKa [2]: 11.24

From PMC9780748
